Data published in paper PMC8790524, “Probing the binding of interleukin-23 to individual receptor components and the IL-23 heteromeric receptor complex in living cells using NanoBRET” (Cell Chemical Biology, 2022).
Values joined by “and” are separate entries in the source; they are usually repeats but may differ in a detail not shown here. Equal entries are not always repeated.

T1: NanoLuciferase-tagged full-length IL23R (UniProt Q5VWK5 24-629)
T1 construct: IL-23 receptor (IL23R), full-length, synthesised without its endogenous signal peptide; Gly-Ser-Arg linker between NanoLuciferase and its N terminus; Open reading frame: N-terminal IL-6 secretion signal, NanoLuciferase, Gly-Ser-Arg, IL23R; in a pNLF vector; also called NL-IL23R; IL6SS-NL-IL23R; source: HEK293T, transiently transfected, on living cells; not shown: NanoLuciferase, N-terminal, kept
T1 sequence (looked up): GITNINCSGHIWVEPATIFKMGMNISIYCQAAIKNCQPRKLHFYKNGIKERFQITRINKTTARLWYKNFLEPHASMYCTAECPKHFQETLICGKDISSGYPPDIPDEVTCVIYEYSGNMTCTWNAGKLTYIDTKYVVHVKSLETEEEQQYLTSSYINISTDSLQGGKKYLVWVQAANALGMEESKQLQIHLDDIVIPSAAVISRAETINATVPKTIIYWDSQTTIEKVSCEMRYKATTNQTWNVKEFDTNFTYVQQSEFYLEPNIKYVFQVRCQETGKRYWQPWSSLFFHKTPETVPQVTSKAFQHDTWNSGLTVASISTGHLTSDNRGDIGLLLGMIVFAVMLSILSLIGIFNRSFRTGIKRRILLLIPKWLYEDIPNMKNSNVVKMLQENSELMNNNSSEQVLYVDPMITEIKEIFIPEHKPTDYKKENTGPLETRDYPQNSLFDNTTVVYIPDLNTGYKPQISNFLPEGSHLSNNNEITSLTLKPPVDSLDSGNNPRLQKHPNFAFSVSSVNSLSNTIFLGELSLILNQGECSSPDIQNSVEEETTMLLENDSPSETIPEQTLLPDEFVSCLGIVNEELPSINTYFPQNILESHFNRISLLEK

B1: Recombinant IL-23 protein (unlabeled) (ligand)
chain 1: RAVPGGSSPAWTQCQQLSQKLCTLAWSAHPLVGHMDLREEGDEETTNDVPHIQCGDGCDPQGLRDNSQFCLQRIHQGLIFYEKLLGSDIFTGEPSLLPDSPVGQLHASLLGLSQLLQPEGHHWETQQIPSLSPSQPWQRLLLRFKILRSLQAFVAVAARVFAHGAATLSP
chain 2: IWELKKDVYVVELDWYPDAPGEMVVLTCDTPEEDGITWTLDQSSEVLGSGKTLTIQVKEFGDAGQYTCHKGGEVLSHSLLLLHKKEDGIWSTDILKDQKEPKNKTFLRCEAKNYSGRFTCWWLTTISTDLTFSVKSSRGSSDPQGVTCGAATLSAERVRGDNKEYEYSVECQEDSACPAAEESLPIEVMVDAVHKLKYENYTSSFFIRDIIKPDPPKNLQLKPLKNSRQVEVSWEYPDTWSTPHSYFSLTFCVQVQGKSKREKKDRVFTDKTSATVICRKNASISVRAQDRYYSSSWSEWASVPCS
modifications: several mass peaks differing by 162 Da, most likely N-linked glycosylation
notes: IL23p19, the alpha subunit of IL-23, disulfide-linked to IL12p40; IL12p40, the beta subunit of IL-23, disulfide-linked to IL23p19; also called interleukin-23; unlabeled IL-23; source: HEK293-F, co-transduced with BacMam viruses (p19-His and p40), purified from the supernatant (Ni-Sepharose); gift of GlaxoSmithKline
B2: TAMRA-conjugated IL-23 (ligand)
chain 1: B1 chain 1
chain 2: B1 chain 2
modifications: TAMRA (5(6)-carboxytetramethylrhodamine, coupled as NHS ester); 64.9% of TAMRA labels were located on IL23p19; sites not stated | TAMRA (labelled to a lesser extent than IL23p19; sites not stated); several mass peaks differing by 162 Da, most likely N-linked glycosylation
notes: IL23p19, the alpha subunit of IL-23, disulfide-linked to IL12p40; IL12p40, the beta subunit of IL-23, disulfide-linked to IL23p19; A mixture: by LC-MS 52.3% unlabeled, 29.5% single and 18.2% double labeled; by FCS/PCH 39.6% mono-labeled, 11.9% multi-labeled, 48.5% unlabeled; also called IL23-TMR; TAMRA-tagged IL-23; source: HEK293-F, co-transduced with BacMam viruses (p19-His and p40), purified …

Assays:
[1] = target: T2, NL-IL23R co-expressed with untagged IL12Rβ1 (heteromeric IL-23 receptor complex) (UniProt Q5VWK5 24-629; P42701-1 24-662); assay: FRET or BRET; NanoBRET competition on living HEK293T cells co-transfected with NL-IL23R and IL12Rβ1: titration of unlabelled IL-23 against several concentrations of IL23-TMR; HBSS with 1 mg/ml BSA, 1 h; Ki by Cheng-Prusoff or by linear regression of IC50 against IL23-TMR concentration; conditions: one partner purified
T2 construct: IL-23 receptor (IL23R), full-length, synthesised without its endogenous signal peptide; Gly-Ser-Arg linker between NanoLuciferase and its N terminus; IL-12 receptor subunit β1 (IL12Rβ1), untagged, from the Origene expression plasmid; also called NL-IL23R:IL12Rβ1 receptor complex; NL-IL23R and IL12Rβ1; source: HEK293T, transiently co-transfected (1 μg of each plasmid), on living cells; not shown: …

[2] = target: T2, NL-IL23R co-expressed with untagged …; assay: cell-based or functional assay
[3] = target: NL-IL12Rβ1 co-expressed with HaloTag-IL23R (UniProt P42701 24-662; Q5VWK5 24-629, HaloTag NanoBRET 618 ligand bound to the HaloTag); assay: cell-based or functional assay
[4] = target: T3, NL-IL23R co-expressed with SNAP-tag fused IL12Rβ1 (UniProt Q5VWK5 24-629; P42701 24-662); assay: cell-based or functional assay
[5] = target: T4, NL-IL23R co-expressed with HaloTag fused IL12Rβ1 (UniProt Q5VWK5 24-629; P42701 24-662); assay: cell-based or functional assay
[6] = target: wild-type IL23R heteromer (IL23R and IL12Rβ1) (UniProt Q5VWK5-1 24-629; P42701-1 24-662); assay: cell-based or functional assay
[7] = target: T2, NL-IL23R co-expressed with untagged …; assay: FRET or BRET; NanoBRET saturation binding of IL23-TMR to living HEK293T cells transiently expressing the NL-fused receptor (alone or 1:1 with the partner receptor plasmid); HBSS with 1 mg/ml BSA, 1 h, 37.5°C; non-specific binding with an excess of unlabelled IL-23 (50 nM to 1 μM); conditions: one partner purified
[8] = target: T5, NanoLuciferase-tagged full-length IL12Rβ1 (UniProt P42701 24-662); assay: as above; conditions: one partner purified
T5 construct: IL-12 receptor subunit β1 (IL12Rβ1), full-length, synthesised without its endogenous signal peptide; Gly-Ser-Arg linker between NanoLuciferase and its N terminus; Open reading frame: N-terminal IL-6 secretion signal, NanoLuciferase, Gly-Ser-Arg, IL12Rβ1; in a pNLF vector; also called NL-IL12Rβ1; IL6SS-NL-IL12Rβ1; source: HEK293T, transiently transfected, on living cells; not shown: …

[9] = target: T3, NL-IL23R co-expressed with SNAP-tag …; assay: as above; conditions: one partner purified
[10] = target: T1, NanoLuciferase-tagged full-length IL23R; assay: as above; conditions: one partner purified
[11] = target: T4, NL-IL23R co-expressed with HaloTag …; assay: as above; conditions: one partner purified
[12] = target: T6, NL-IL12Rβ1 co-expressed with unlabeled IL23R (UniProt P42701 24-662; Q5VWK5-1 24-629); assay: as above; conditions: one partner purified
T6 construct: IL-12 receptor subunit β1 (IL12Rβ1), full-length, synthesised without its endogenous signal peptide; Gly-Ser-Arg linker between NanoLuciferase and its N terminus; IL-23 receptor (IL23R) from the Origene IL23R-MYCDDK expression plasmid; called unlabeled or untagged in the results; also called NL-IL12Rβ1:IL23R complex; NL-IL12Rβ1 + IL23R; source: HEK293T, transiently co-transfected (1:1 or 1:10 …)

[13] = target: T6, NL-IL12Rβ1 co-expressed with unlabeled …; assay: FRET or BRET; NanoBRET saturation binding of IL23-TMR to living HEK293T cells transfected with NL-IL12Rβ1 and IL23R at a 1:10 ratio (2.2 μg total DNA per well); HBSS with 1 mg/ml BSA, 1 h; non-specific binding with 100 nM unlabelled IL-23; conditions: one partner purified

Binder	Ki [1]	potency (EC50) of IL-23 for STAT3 phosphorylation (Tyr705, AlphaLISA SureFire Ultra), HEK293T cells, 30 min [2]	EC50 of IL-23 for the increase in intra-receptor BRET between NL-IL12Rβ1 and HaloTag-IL23R [3]	EC50 of IL-23 for the increase in intra-receptor BRET between NL-IL23R and SNAP-IL12Rβ1 (AF488) [4]	potency (EC50) of IL-23 for STAT3 phosphorylation (Tyr705, AlphaLISA SureFire Ultra), HEK293T cells, 30 min [4]	EC50 of IL-23 for the decrease in intra-receptor BRET between NL-IL23R and HaloTag-IL12Rβ1 (HT618) [5]	potency (EC50) of IL-23 for STAT3 phosphorylation (Tyr705, AlphaLISA SureFire Ultra), HEK293T cells, 30 min [5]	EC50 of IL-23 for STAT3 phosphorylation (Tyr705, AlphaLISA SureFire Ultra), HEK293T cells, 30 min [6]	Kd [7]	Kd [8]	Kd [9]	Kd [10]	Kd [11]	KD of the high-affinity site (two-site fit) [12]	KD of the low-affinity site (two-site fit) [12]	Kd [12]	Kd [13]	Kd [1]
B1	31.6 pM and 27.2 pM	154 pM	457 pM	42.9 pM	150 pM	43.6 pM	199 pM	269 pM										
B2									27 pM	30100 pM	454 ± 43 pM	222000 pM	179 ± 8 pM	28 pM	72000 pM	46700 pM	647 pM	35.1 pM
